{
  "source": "IntAct's records for PubMed 14660673",
  "parents": {"B1": {"name": "F-box protein MET30 (Saccharomyces cerevisiae), P39014 (parent)", "chain": "MRRERQRMMSFEDKDKDDLDNSNSNNSSEMTDTAMMPPLKRLLITGSSDDLAQGSSGKKKMTMATRSPSSSPDLATNDSGTRVQPLPEYNFTKFCYRHNPDIQFSPTHTACYKQDLKRTQEINANIAKLPLQEQSDIHHIISKYSNSNDKIRKLILDGILSTSCFPQLSYISSLVTHMIKIDFISILPQELSLKILSYLDCQSLCNATRVCRKWQKLADDDRVWYHMCEQHIDRKCPNCGWGLPLLHMKRARIQQNSTGSSSNADIQTQTTRPWKVIYRERFKVESNWRKGHCRIQEFKGHMDGVLTLQFNYRLLFTGSYDSTIGIWDLFTGKLIRRLSGHSDGVKTLYFDDRKLITGSLDKTIRVWNYITGECISTYRGHSDSVLSVDSYQKVIVSGSADKTVKVWHVESRTCYTLRGHTEWVNCVKLHPKSFSCFSCSDDTTIRMWDIRTNSCLKVFRGHVGQVQKIIPLTIKDVENLATDNTSDGSSPQDDPTMTDGADESDTPSNEQETVLDENIPYPTHLLSCGLDNTIKLWDVKTGKCIRTQFGHVEGVWDIAADNFRIISGSHDGSIKVWDLQSGKCMHTFNGRRLQRETQHTQTQSLGDKVAPIACVCIGDSECFSGDEFGCVKMYKFDLND"}},
  "data": [
    {"variants_of": "B1", "conditions": "with skp1_yeast SKP1, P52286", "values": [
      {"variant": "L187D;E190A", "effect of a mutation on the interaction": "decreasing interaction"}
    ]},
    {"variants_of": "B1", "conditions": "with skp1_yeast SKP1, P52286", "remark": "another data set of the same source", "values": [
      {"variant": "P188L", "effect of a mutation on the interaction": "disrupting interaction strength"},
      {"variant": "P188S", "effect of a mutation on the interaction": "disrupting interaction strength"},
      {"variant": "S163N", "effect of a mutation on the interaction": "disrupting interaction strength"},
      {"variant": "S169P", "effect of a mutation on the interaction": "disrupting interaction strength"},
      {"variant": "C211Y", "effect of a mutation on the interaction": "disrupting interaction strength"},
      {"variant": "Q167R", "effect of a mutation on the interaction": "disrupting interaction strength"}
    ]}
  ]
}
